{
  "source": "paper PMC6047922",
  "origin": "cited, not measured here",
  "target": "ttRNH* Icore (Thermus thermophilus) (UniProt Q72IE1)",
  "experiment": "analytical ultracentrifugation",
  "data": [
    {"substance": "ttRNH* Icore (from UniProt Q72IE1)", "values": [
      {"measurement": "Kd", "value": 150, "unit": "µM"}
    ]}
  ]
}
